Reference: article PMC10315065 (Journal of Innate Immunity, 2023)

Target: human glyceraldehyde-3-phosphate dehydrogenase (GAPDH) (human, UniProt P04406 1-335, fluorescent dye NT-647 (Monolith NT Protein Labeling Kit RED-NHS))
Assay: MST

Chain of human glyceraldehyde-3-phosphate dehydrogenase (GAPDH) (P04406 whole entry): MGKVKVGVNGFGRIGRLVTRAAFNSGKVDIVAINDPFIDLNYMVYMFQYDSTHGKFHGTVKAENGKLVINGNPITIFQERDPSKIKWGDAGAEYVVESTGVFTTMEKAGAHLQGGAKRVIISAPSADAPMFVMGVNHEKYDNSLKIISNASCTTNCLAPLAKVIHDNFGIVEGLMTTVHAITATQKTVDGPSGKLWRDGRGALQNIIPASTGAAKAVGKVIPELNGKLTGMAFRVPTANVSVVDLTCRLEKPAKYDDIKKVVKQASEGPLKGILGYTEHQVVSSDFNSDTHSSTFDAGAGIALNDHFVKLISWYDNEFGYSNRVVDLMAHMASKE

Which Kd does the source give for GLLRKGGEKIGEKLKKIGQKIKNFFQKLVPQPEQ [Mouse cathelicidin-related antimicrobial peptide] here?
Its Kd is 472 nM.
